{"source": "patent US7264954B2", "about": "“Lipoxygenase” (Novozymes A/S, priority 2001, dated 2007)", "key": {"M. salvinii lipoxygenase": {"molecular_target": "M. salvinii lipoxygenase (Nakataea oryzae, UniProt P0CT92)", "sequence (P0CT92 18-617)": "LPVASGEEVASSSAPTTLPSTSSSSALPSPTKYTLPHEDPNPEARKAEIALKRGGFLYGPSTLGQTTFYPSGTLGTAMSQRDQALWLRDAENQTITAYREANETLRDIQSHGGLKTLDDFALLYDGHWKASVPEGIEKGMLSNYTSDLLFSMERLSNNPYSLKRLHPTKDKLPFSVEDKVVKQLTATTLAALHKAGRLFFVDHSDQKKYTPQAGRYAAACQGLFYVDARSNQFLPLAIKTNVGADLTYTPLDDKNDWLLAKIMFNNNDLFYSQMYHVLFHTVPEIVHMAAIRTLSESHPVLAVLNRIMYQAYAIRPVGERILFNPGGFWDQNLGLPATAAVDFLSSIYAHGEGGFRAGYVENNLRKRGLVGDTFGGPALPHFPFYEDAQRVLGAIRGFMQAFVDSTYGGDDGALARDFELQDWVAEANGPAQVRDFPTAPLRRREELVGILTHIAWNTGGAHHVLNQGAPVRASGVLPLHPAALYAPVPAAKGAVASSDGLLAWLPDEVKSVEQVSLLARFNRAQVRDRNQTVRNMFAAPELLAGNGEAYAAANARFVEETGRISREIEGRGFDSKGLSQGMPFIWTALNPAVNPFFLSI", "conditions": "per substrate"}, "soybean lipoxygenase": {"molecular_target": "T1, soybean lipoxygenase (Glycine max, UniProt P08170)", "T1 sequence (P08170 1-839)": "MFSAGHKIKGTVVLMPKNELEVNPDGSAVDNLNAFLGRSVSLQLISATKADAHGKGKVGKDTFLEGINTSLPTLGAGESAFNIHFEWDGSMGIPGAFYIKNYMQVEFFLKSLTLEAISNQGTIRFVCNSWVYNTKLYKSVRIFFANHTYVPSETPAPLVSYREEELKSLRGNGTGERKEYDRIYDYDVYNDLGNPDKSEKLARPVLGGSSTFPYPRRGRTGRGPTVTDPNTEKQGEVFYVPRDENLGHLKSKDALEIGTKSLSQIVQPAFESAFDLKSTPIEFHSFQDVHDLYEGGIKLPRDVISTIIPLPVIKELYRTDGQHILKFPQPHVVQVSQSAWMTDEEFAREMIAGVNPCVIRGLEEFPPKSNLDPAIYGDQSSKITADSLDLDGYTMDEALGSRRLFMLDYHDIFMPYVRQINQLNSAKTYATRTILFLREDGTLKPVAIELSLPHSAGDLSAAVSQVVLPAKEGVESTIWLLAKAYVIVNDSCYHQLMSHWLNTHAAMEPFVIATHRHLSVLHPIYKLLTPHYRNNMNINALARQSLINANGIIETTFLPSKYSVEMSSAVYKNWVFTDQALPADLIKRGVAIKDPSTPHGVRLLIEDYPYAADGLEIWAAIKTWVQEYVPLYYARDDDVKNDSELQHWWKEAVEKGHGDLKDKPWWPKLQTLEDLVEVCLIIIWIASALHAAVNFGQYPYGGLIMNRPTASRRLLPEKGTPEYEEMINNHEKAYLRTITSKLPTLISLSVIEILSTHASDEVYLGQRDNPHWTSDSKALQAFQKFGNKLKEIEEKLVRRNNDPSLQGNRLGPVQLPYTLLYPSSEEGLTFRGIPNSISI", "experiment": "Substrate kinetic parameters with soybean lipoxygenase (comparison)", "assay_type": "biochemical", "procedure": "Soybean lipoxygenase (type I-B) (cat.# L7315) and astaxanthin (cat.# A-9335) was supplied by Sigma. b-carotene (cat.# 031-05533) were supplied by Wako. For comparison, one substrate was also tested with soybean lipoxygenase."}, "[1]": {"system": "CCCCC/C=C\\C/C=C\\C/C=C\\C/C=C\\CCCC(=O)O", "experiment": "purified protein, by the assay type"}, "[2]": {"system": "CCCCC/C=C\\C/C=C\\CCCCCCCC(=O)Cl", "experiment": "purified protein, by the assay type"}, "[3]": {"system": "CCCCC/C=C\\C/C=C\\CCCCCCCC(=O)OC", "experiment": "purified protein, by the assay type"}, "[4]": {"system": "CCCCC/C=C\\C/C=C\\CCCCCCCCOC(C)=O", "experiment": "purified protein, by the assay type"}, "[5]": {"system": "CCCCC/C=C\\C/C=C\\CCCCCCCCO", "experiment": "purified protein, by the assay type"}, "[6]": {"experiment": "Bleaching assay, β-carotene pigment solution", "assay_type": "biochemical", "method": "(§1) Bleaching effect by lipoxygenase was examined spectrophotometrically at 25° C. by following the absorbance at 470 nm. The pigment solution was prepared as follows. 150 ul of stock pigment solution (1 mg each pigment in 1 ml chloroform) was evaporated to be dry. Then 30 ml of the buffer (50 mM KH2PO4NaHPO4, pH 7.0) with 0.3% of Tween 20 was added slowly and the pigment was dissolved.\n(§2) The bleaching effect of M. salvinii LOX was examined. Soybean L1 was included for comparison. β-carotene and astaxanthin were used as pigments."}, "[7]": {"experiment": "Bleaching assay, astaxanthin pigment solution", "assay_type": "biochemical", "method": "as §1, §2"}}, "data": [{"molecule": "CCCCC/C=C/C/C=C/CCCCCCCC(=O)O", "note": "[Linoelaidic acid]", "values": [{"measurement": "KM", "setting": "M. salvinii lipoxygenase", "value": "No activity"}, {"measurement": "Vmax", "setting": "M. salvinii lipoxygenase", "value": "No activity"}, {"measurement": "Vmax/KM", "setting": "M. salvinii lipoxygenase", "value": "No activity"}]}, {"molecule": "CCCCC/C=C\\C/C=C\\CCCCCCCC(=O)O", "note": "[Linoleic acid]", "values": [{"measurement": "Km", "setting": "soybean lipoxygenase", "value": 230, "unit": "µM"}, {"measurement": "Vmax", "setting": "soybean lipoxygenase", "value": 12.3, "unit": "µmol/min/mg"}, {"measurement": "Km", "setting": "M. salvinii lipoxygenase", "value": 1, "unit": "µM"}, {"measurement": "Vmax", "setting": "M. salvinii lipoxygenase", "value": 2.63, "unit": "µmol/min/mg"}]}, {"molecule": "CC/C=C\\C/C=C\\C/C=C\\CCCCCCCC(=O)O", "note": "[Linolenic acid]", "values": [{"measurement": "Km", "setting": "M. salvinii lipoxygenase", "value": 0.4, "unit": "µM"}]}, {"molecule": "CCCCC/C=C\\C/C=C\\CCCCCCCC(=O)O", "note": "[Na linoleate]", "values": [{"measurement": "Km", "setting": "M. salvinii lipoxygenase", "value": 0.41, "unit": "µM"}, {"measurement": "Vmax", "setting": "M. salvinii lipoxygenase", "value": 2.07, "unit": "µmol/min/mg"}]}, {"molecule": "M. salvinii lipoxygenase (Nakataea oryzae)", "values": [{"measurement": "Km", "setting": "[1]", "value": 5.5, "unit": "µM"}, {"measurement": "Vmax", "setting": "[1]", "value": 2.44, "unit": "µmol/min/mg"}, {"measurement": "Vmax/Km", "setting": "[1]", "value": 446000, "unit": "µL/min/mg"}, {"measurement": "Km", "setting": "[2]", "value": 12, "unit": "µM"}, {"measurement": "Vmax", "setting": "[2]", "value": 0.97, "unit": "µmol/min/mg"}, {"measurement": "Vmax/Km", "setting": "[2]", "value": 80000, "unit": "µL/min/mg"}, {"measurement": "Km", "setting": "[3]", "value": 30, "unit": "µM"}, {"measurement": "Vmax", "setting": "[3]", "value": 0.82, "unit": "µmol/min/mg"}, {"measurement": "Vmax/Km", "setting": "[3]", "value": 26000, "unit": "µL/min/mg"}, {"measurement": "Km", "setting": "[4]", "value": 9, "unit": "µM"}, {"measurement": "Vmax", "setting": "[4]", "value": 0.77, "unit": "µmol/min/mg"}, {"measurement": "Vmax/Km", "setting": "[4]", "value": 85000, "unit": "µL/min/mg"}, {"measurement": "Km", "setting": "[5]", "value": 8, "unit": "µM"}, {"measurement": "Vmax", "setting": "[5]", "value": 1.4, "unit": "µmol/min/mg"}, {"measurement": "Vmax/Km", "setting": "[5]", "value": 175000, "unit": "µL/min/mg"}]}, {"molecule": "Soybean L1: Soybean lipoxygenase (type I-B) (cat.# L7315) supplied by Sigma, included for comparison (protein, UniProt P08170 1-839, looked up) Seed linoleate …: MFSAGHKIKGTVVLMPKNELEVNPDGSAVDNLNAFLGRSVSLQLISATKADAHGKGKVGKDTFLEGINTSLPTLGAGESAFNIHFEWDGSMGIPGAFYIKNYMQVEFFLKSLTLEAISNQGTIRFVCNSWVYNTKLYKSVRIFFANHTYVPSETPAPLVSYREEELKSLRGNGTGERKEYDRIYDYDVYNDLGNPDKSEKLARPVLGGSSTFPYPRRGRTGRGPTVTDPNTEKQGEVFYVPRDENLGHLKSKDALEIGTKSLSQIVQPAFESAFDLKSTPIEFHSFQDVHDLYEGGIKLPRDVISTIIPLPVIKELYRTDGQHILKFPQPHVVQVSQSAWMTDEEFAREMIAGVNPCVIRGLEEFPPKSNLDPAIYGDQSSKITADSLDLDGYTMDEALGSRRLFMLDYHDIFMPYVRQINQLNSAKTYATRTILFLREDGTLKPVAIELSLPHSAGDLSAAVSQVVLPAKEGVESTIWLLAKAYVIVNDSCYHQLMSHWLNTHAAMEPFVIATHRHLSVLHPIYKLLTPHYRNNMNINALARQSLINANGIIETTFLPSKYSVEMSSAVYKNWVFTDQALPADLIKRGVAIKDPSTPHGVRLLIEDYPYAADGLEIWAAIKTWVQEYVPLYYARDDDVKNDSELQHWWKEAVEKGHGDLKDKPWWPKLQTLEDLVEVCLIIIWIASALHAAVNFGQYPYGGLIMNRPTASRRLLPEKGTPEYEEMINNHEKAYLRTITSKLPTLISLSVIEILSTHASDEVYLGQRDNPHWTSDSKALQAFQKFGNKLKEIEEKLVRRNNDPSLQGNRLGPVQLPYTLLYPSSEEGLTFRGIPNSISI", "values": [{"measurement": "ΔA470/min", "setting": "[6]; β-carotene", "value": 0.00005}, {"measurement": "bleaching effect (in words)", "setting": "[6]; β-carotene and astaxanthin pigment solutions", "value": "little effect on bleaching"}, {"measurement": "LOX activity", "setting": "[6]; β-carotene experiment", "value": 1.962}, {"measurement": "absorbance at 470 nm", "setting": "[6]; β-carotene, time 0 min, 25° C., pH 7.0", "value": 0.3575}, {"measurement": "absorbance at 470 nm", "setting": "[6]; β-carotene, time 0.4 min", "value": 0.3616}, {"measurement": "absorbance at 470 nm", "setting": "[6]; β-carotene, time 0.8 min", "value": 0.3601}, {"measurement": "absorbance at 470 nm", "setting": "[6]; β-carotene, time 1.2 min", "value": 0.362}, {"measurement": "absorbance at 470 nm", "setting": "[6]; β-carotene, time 1.4 min", "value": 0.3602}, {"measurement": "absorbance at 470 nm", "setting": "[6]; β-carotene, time 1.8 min", "value": 0.3602}, {"measurement": "absorbance at 470 nm", "setting": "[6]; β-carotene, time 2.2 min", "value": 0.3595}, {"measurement": "absorbance at 470 nm", "setting": "[6]; β-carotene, time 2.6 min", "value": 0.3595}, {"measurement": "absorbance at 470 nm", "setting": "[6]; β-carotene, time 3 min", "value": 0.3594}, {"measurement": "ΔA470/min", "setting": "[7]; Astaxanthin", "value": 0.0021}, {"measurement": "LOX activity", "setting": "[7]; Astaxanthin experiment", "value": 2.018}, {"measurement": "absorbance at 470 nm", "setting": "[7]; Astaxanthin, time 0 min, 25° C., pH 7.0", "value": 0.5026}, {"measurement": "absorbance at 470 nm", "setting": "[7]; Astaxanthin, time 0.4 min", "value": 0.5029}, {"measurement": "absorbance at 470 nm", "setting": "[7]; Astaxanthin, time 0.8 min", "value": 0.505}, {"measurement": "absorbance at 470 nm", "setting": "[7]; Astaxanthin, time 1 min", "value": 0.5025}, {"measurement": "absorbance at 470 nm", "setting": "[7]; Astaxanthin, time 1.4 min", "value": 0.5013}, {"measurement": "absorbance at 470 nm", "setting": "[7]; Astaxanthin, time 1.8 min", "value": 0.4993}, {"measurement": "absorbance at 470 nm", "setting": "[7]; Astaxanthin, time 2.2 min", "value": 0.4985}, {"measurement": "absorbance at 470 nm", "setting": "[7]; Astaxanthin, time 2.6 min", "value": 0.4986}, {"measurement": "absorbance at 470 nm", "setting": "[7]; Astaxanthin, time 3 min", "value": 0.498}]}]}
